From patent US20220340635A1, “FUSION PROTEIN FOR TREATMENT OF METABOLIC DISEASE” (ZHEJIANG DOER BIOLOGICS CORPORATION, priority 2019, published 2022)
No end group written: not given here.

Key:
[1] = molecular target: Recombinant DPP-IV enzyme (Homo sapiens, UniProt P27487); experiment: DPP-IV enzyme resistance (GCGR bioactivity after DPP-IV treatment); format: in vitro ADME; settings: 5 μM protein, 10 nM recombinant DPP-IV, 37° C., 24 hours; GCGR bioactivity after/before treatment
Procedure: The purified fusion protein was dissolved in 10 mM of HEPES buffer (containing 0.05 mg/ml BSA) to a final concentration of 5 μM. Recombinant DPP-IV enzyme (final concentration of 10 nM) was added and incubated at 37° C. for 24 hours before detection of GCGR bioactivity. Activity retention rate=(activity after DPP-IV enzyme treatment/activity before DPP-IV enzyme treatment)×100%.

[2] = in vivo; cited from earlier work

Sequence of Recombinant DPP-IV enzyme (P27487 whole entry, species assumed, the tested form may be a part): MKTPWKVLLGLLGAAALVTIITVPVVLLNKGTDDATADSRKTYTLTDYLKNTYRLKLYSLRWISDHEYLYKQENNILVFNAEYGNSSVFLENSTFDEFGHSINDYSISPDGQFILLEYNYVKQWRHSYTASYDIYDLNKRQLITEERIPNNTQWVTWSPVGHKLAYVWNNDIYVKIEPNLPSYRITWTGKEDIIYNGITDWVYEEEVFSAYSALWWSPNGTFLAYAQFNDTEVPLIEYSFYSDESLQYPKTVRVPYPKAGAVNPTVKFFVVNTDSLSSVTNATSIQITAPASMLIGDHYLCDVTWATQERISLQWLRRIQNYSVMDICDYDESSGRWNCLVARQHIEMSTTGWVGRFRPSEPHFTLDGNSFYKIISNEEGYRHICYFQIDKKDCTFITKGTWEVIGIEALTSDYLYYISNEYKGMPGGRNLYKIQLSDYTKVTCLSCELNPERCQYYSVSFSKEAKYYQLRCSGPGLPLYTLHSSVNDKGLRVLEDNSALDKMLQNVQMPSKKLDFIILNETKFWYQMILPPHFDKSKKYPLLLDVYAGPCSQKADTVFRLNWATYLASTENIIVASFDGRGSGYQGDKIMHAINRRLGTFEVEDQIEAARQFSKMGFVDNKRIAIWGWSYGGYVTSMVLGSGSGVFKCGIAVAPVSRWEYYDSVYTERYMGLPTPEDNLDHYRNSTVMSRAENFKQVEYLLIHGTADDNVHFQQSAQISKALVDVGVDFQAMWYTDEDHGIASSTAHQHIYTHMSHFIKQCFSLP

H-D-Ser-QGTFTSDYSKYLDSQAAQDFVQWLMNGGPSSGAPPPS (not fully specified (N-terminus)) [GDSerGS, control]
Activity preservation rate (%) [1]: 99.2%

Taspoglutide
Anti-drug antibody positive rate [2]: 49%
